# Test results published in US11160871B2, “SSTR-targeted conjugates and particles and formulations thereof” (TARVEDA THERAPEUTICS, INC., priority 2015, dated 2021).
# Where two headings read alike, the source gives them in different places.
# Tests used:
# Plasma pharmacokinetics = format: in vivo; conditions: for Vd: read-out: Vss
# Experimental: In this example, plasma pharmacokinetics of Conjugate 57 was studied in mouses, rats and dogs. Half-life, maximum plasma drug concentration (Cmax), drug clearance (CL), area under the curve time curve from time 0 to the last sampling time (AUC 0-t), and apparent volume of distribution at steady state (VSS) were measured.
# [1] = Allometric scaling of clearance; design: species or system human; conditions: from mouse, rat and dog
# HCC-33 (SCLC) xenografts = test: HCC-33 (SCLC) xenografts, tumor growth inhibition (Example 13); format: in vivo; conditions: for TGI % Day 5 / TGI % Day 8 / TGI % Day 12 / TGI % Day 16 / TGI % Day 20 / TGI % Day 23 / TGI % Day 27 / TGI % Day 30: dosed on Day 1 and Day 8
# Experimental: The efficacy of Conjugate 57 was studied with HCC-33 (SCLC) xenografts. Conjugate 57 was dosed on Day 1 and Day 8.
# [2] = both groups (2 mg/kg and 1 mg/kg)
compound,measurement,setting,value
COc1cc2cc(c1Cl)N(C)C(=O)C[C@H](OC(=O)[C@H](C)N(C)C(=O)CCSSC[C@H](NC(=O)[C@@H]1CSSC[C@H](NC(=O)[C@H](N)Cc3ccccc3)C(=O)N[C@@H](Cc3ccc(O)cc3)C(=O)N[C@H](Cc3c[nH]c4ccccc34)C(=O)N[C@@H](CCCCN)C(=O)N[C@@H]([C@@H](C)O)C(=O)N1)C(N)=O)[C@]1(C)O[C@H]1[C@H](C)[C@@H]1C[C@@](O)(NC(=O)O1)[C@H](OC)/C=C/C=C(\C)C2 [Conjugate 57],AUC(0-t),"Plasma pharmacokinetics; Dog, 0.1 mg/kg",0.619 µM·h
same,Cmax,"Plasma pharmacokinetics; Dog, 0.1 mg/kg",0.73 µM
same,clearance,"Plasma pharmacokinetics; Dog, 0.1 mg/kg",1.39 mL/min/kg
same,half-life,"Plasma pharmacokinetics; Dog, 0.1 mg/kg",2.86 h
same,Vd,"Plasma pharmacokinetics; Dog, 0.1 mg/kg",0.224 L/kg
same,AUC(0-t),"Plasma pharmacokinetics; Mouse, 2 mg/kg",7.3 µM·h
same,Cmax,"Plasma pharmacokinetics; Mouse, 2 mg/kg",5.93 µM
same,clearance,"Plasma pharmacokinetics; Mouse, 2 mg/kg",2.32 mL/min/kg
same,half-life,"Plasma pharmacokinetics; Mouse, 2 mg/kg",12.2 h
same,Vd,"Plasma pharmacokinetics; Mouse, 2 mg/kg",0.963 L/kg
same,AUC(0-t),"Plasma pharmacokinetics; Rat, 1.5 mg/kg",2.77 µM·h
same,Cmax,"Plasma pharmacokinetics; Rat, 1.5 mg/kg",4.69 µM
same,clearance,"Plasma pharmacokinetics; Rat, 1.5 mg/kg",4.99 mL/min/kg
same,half-life,"Plasma pharmacokinetics; Rat, 1.5 mg/kg",8.07 h
same,Vd,"Plasma pharmacokinetics; Rat, 1.5 mg/kg",0.594 L/kg
same,clearance in human predicted by allometric scaling,[1],low clearance
same,TGI % Day 5,HCC-33 (SCLC) xenografts; 1 mg/kg,46.2%
same,TGI % Day 8,HCC-33 (SCLC) xenografts; 1 mg/kg,71.3%
same,TGI % Day 12,HCC-33 (SCLC) xenografts; 1 mg/kg,87.2%
same,TGI % Day 16,HCC-33 (SCLC) xenografts; 1 mg/kg,96.3%
same,TGI % Day 20,HCC-33 (SCLC) xenografts; 1 mg/kg,98.1%
same,TGI % Day 23,HCC-33 (SCLC) xenografts; 1 mg/kg,99.2%
same,TGI % Day 27,HCC-33 (SCLC) xenografts; 1 mg/kg,99.6%
same,TGI % Day 30,HCC-33 (SCLC) xenografts; 1 mg/kg,99.6%
same,TGI % Day 5,HCC-33 (SCLC) xenografts; 2 mg/kg,47%
same,TGI % Day 8,HCC-33 (SCLC) xenografts; 2 mg/kg,74.8%
same,TGI % Day 12,HCC-33 (SCLC) xenografts; 2 mg/kg,88.2%
same,TGI % Day 16,HCC-33 (SCLC) xenografts; 2 mg/kg,96.2%
same,TGI % Day 20,HCC-33 (SCLC) xenografts; 2 mg/kg,98.3%
same,TGI % Day 23,HCC-33 (SCLC) xenografts; 2 mg/kg,99.1%
same,TGI % Day 27,HCC-33 (SCLC) xenografts; 2 mg/kg,99.5%
same,TGI % Day 30,HCC-33 (SCLC) xenografts; 2 mg/kg,99.9%
same,Body weights,HCC-33 (SCLC) xenografts; [2],increased
same,Tumor regression,HCC-33 (SCLC) xenografts; [2],~100%
